We go through 3 molecules from paper PMC3695229 (2013).

* marks the point of attachment. Biotin = O=C1N[C@H]2[C@H](CS[C@H]2CCCCC(=O)*)N1

This assay deals with T1, TGF-β2 (Homo sapiens, UniProt P61812).
T1 chain: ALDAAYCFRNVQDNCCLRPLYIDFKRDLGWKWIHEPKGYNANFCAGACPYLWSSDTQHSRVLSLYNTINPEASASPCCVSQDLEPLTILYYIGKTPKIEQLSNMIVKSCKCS
Put plainly: SPR. Background: In SPR one partner is held on a chip, and binding of the other changes the refractive index at the surface.

B1: P1-mZP ZP-C peptide (peptide)
chain: MIWTMMQNKKTFTKP
For B1, the Kd – broadly, a measure of binding affinity in units of concentration – worked out at 8 nM.

B2: P4-mZP 732-748 (peptide)
chain: Biotin-DATMIWTMMQNKKTFTK-NH2
As to B2, the dissociation constant (Kd) was around 190 nM.

B3: P5-hZP 734-750 (peptide)
chain: Biotin-DASIIWAMMQNKKTFTK-NH2
Molecule B3 registered a Kd of around 350 nM.
